B1: Syntenin-2 (Homo sapiens), Q9H190 (parent)
chain: MSSLYPSLEDLKVDQAIQAQVRASPKMPALPVQATAISPPPVLYPNLAELENYMGLSLSSQEVQESLLQIPEGDSTAVSGPGPGQMVAPVTGYSLGVRRAEIKPGVREIHLCKDERGKTGLRLRKVDQGLFVQLVQANTPASLVGLRFGDQLLQIDGRDCAGWSSHKAHQVVKKASGDKIVVVVRDRPFQRTVTMHKDSMGHVGFVIKKGKIVSLVKGSSAARNGLLTNHYVCEVDGQNVIGLKDKKIMEILATAGNVVTLTIIPSVIYEHMVKKLPPVLLHHTMDHSIPDA
partner: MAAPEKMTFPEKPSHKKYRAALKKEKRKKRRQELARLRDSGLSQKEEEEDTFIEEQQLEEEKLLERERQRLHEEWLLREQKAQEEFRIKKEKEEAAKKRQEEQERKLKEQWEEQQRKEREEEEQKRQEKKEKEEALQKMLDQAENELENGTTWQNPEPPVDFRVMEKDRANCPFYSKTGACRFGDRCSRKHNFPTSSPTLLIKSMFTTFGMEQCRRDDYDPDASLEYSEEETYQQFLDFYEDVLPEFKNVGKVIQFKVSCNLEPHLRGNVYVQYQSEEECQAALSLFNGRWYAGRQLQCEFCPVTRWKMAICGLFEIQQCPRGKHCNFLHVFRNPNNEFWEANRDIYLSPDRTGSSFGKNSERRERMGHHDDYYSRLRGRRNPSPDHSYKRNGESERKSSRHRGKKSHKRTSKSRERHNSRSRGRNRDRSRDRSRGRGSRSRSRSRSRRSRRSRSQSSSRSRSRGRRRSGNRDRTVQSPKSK
B2: DNA repair and recombination protein RAD54B (Homo sapiens), Q9Y620 (parent)
chain: MRRSAAPSQLQGNSFKKPKFIPPGRSNPGLNEEITKLNPDIKLFEGVAINNTFLPSQNDLRICSLNLPSEESTREINNRDNCSGKYCFEAPTLATLDPPHTVHSAPKEVAVSKEQEEKSDSLVKYFSVVWCKPSKKKHKKWEGDAVLIVKGKSFILKNLEGKDIGRGIGYKFKELEKIEEGQTLMICGKEIEVMGVISPDDFSSGRCFQLGGGSTAISHSSQVARKCFSNPFKSVCKPSSKENRQNDFQNCKPRHDPYTPNSLVMPRPDKNHQWVFNKNCFPLVDVVIDPYLVYHLRPHQKEGIIFLYECVMGMRMNGRCGAILADEMGLGKTLQCISLIWTLQCQGPYGGKPVIKKTLIVTPGSLVNNWKKEFQKWLGSERIKIFTVDQDHKVEEFIKSIFYSVLIISYEMLLRSLDQIKNIKFDLLICDEGHRLKNSAIKTTTALISLSCEKRIILTGTPIQNDLQEFFALIDFVNPGILGSLSSYRKIYEEPIILSREPSASEEEKELGERRAAELTCLTGLFILRRTQEIINKYLPPKIENVVFCRPGALQIELYRKLLNSQVVRFCLQGLLENSPHLICIGALKKLCNHPCLLFNSIKEKECSSTCDKNEEKSLYKGLLSVFPADYNPLLFTEKESGKLQVLSKLLAVIHELRPTEKVVLVSNYTQTLNILQEVCKRHGYAYTRLDGQTPISQRQQIVDGFNSQHSSFFIFLLSSKAGGVGLNLIGGSHLILYDIDWNPATDIQAMSRVWRDGQKYPVHIYRLLTTGTIEEKIYQRQISKQGLCGAVVDLTKTSEHIQFSVEELKNLFTLHESSDCVTHDLLDCECTGEEVHTGDSLEKFIVSRDCQLGPHHQKSNSLKPLSMSQLKQWKHFSGDHLNLTDPFLERITENVSFIFQNITTQATGT
partner: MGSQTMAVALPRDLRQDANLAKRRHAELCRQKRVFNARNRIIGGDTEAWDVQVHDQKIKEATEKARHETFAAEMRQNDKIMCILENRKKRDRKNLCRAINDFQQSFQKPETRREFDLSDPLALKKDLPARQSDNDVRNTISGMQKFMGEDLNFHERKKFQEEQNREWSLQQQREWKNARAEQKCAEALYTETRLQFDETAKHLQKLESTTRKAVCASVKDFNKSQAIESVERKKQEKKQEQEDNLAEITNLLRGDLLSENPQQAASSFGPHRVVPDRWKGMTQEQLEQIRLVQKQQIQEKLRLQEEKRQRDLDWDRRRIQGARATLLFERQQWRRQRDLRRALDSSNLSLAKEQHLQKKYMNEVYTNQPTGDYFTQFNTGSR
B3: Oxidative stress-induced growth inhibitor 1 (Homo sapiens), Q9UJX0 (parent)
chain: MSSSRKDHLGASSSEPLPVIIVGNGPSGICLSYLLSGYTPYTKPDAIHPHPLLQRKLTEAPGVSILDQDLDYLSEGLEGRSQSPVALLFDALLRPDTDFGGNMKSVLTWKHRKEHAIPHVVLGRNLPGGAWHSIEGSMVILSQGQWMGLPDLEVKDWMQKKRRGLRNSRATAGDIAHYYRDYVVKKGLGHNFVSGAVVTAVEWGTPDPSSCGAQDSSPLFQVSGFLTRNQAQQPFSLWARNVVLATGTFDSPARLGIPGEALPFIHHELSALEAATRVGAVTPASDPVLIIGAGLSAADAVLYARHYNIPVIHAFRRAVDDPGLVFNQLPKMLYPEYHKVHQMMREQSILSPSPYEGYRSLPRHQLLCFKEDCQAVFQDLEGVEKVFGVSLVLVLIGSHPDLSFLPGAGADFAVDPDQPLSAKRNPIDVDPFTYQSTRQEGLYAMGPLAGDNFVRFVQGGALAVASSLLRKETRKPP
partner: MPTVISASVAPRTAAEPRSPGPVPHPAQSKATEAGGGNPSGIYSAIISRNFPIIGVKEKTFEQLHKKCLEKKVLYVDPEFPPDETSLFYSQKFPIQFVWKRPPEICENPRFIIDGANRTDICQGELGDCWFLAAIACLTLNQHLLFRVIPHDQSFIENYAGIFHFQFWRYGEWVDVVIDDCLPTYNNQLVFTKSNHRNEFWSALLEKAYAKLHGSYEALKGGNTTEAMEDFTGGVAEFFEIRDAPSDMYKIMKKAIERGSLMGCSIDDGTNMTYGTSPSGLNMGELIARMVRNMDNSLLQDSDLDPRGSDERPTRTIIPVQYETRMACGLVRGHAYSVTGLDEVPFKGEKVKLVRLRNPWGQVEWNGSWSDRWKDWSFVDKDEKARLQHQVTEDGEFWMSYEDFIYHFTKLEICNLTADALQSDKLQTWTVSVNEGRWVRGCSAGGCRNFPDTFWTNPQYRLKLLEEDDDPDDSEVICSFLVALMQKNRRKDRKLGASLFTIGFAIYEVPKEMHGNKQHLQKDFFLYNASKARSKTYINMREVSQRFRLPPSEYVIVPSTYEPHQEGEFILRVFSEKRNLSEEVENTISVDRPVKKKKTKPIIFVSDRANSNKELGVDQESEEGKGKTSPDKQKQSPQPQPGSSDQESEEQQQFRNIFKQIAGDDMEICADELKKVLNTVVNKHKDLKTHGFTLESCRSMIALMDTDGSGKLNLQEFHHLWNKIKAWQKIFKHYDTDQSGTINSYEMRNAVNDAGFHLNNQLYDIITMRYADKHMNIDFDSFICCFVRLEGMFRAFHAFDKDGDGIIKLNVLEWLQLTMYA
B4: Modulator of apoptosis 1 (Homo sapiens), Q96BY2 (parent)
chain: MTLRLLEDWCRGMDMNPRKALLIAGISQSCSVAEIEEALQAGLAPLGEYRLLGRMFRRDENRKVALVGLTAETSHALVPKEIPGKGGIWRVIFKPPDPDNTFLSRLNEFLAGEGMTVGELSRALGHENGSLDPEQGMIPEMWAPMLAQALEALQPALQCLKYKKLRVFSGRESPEPGEEEFGRWMFHTTQMIKAWQVPDVEKRRRLLESLRGPALDVIRVLKINNPLITVDECLQALEEVFGVTDNPRELQVKYLTTYQKDEEKLSAYVLRLEPLLQKLVQRGAIERDAVNQARLDQVIAGAVHKTIRRELNLPEDGPAPGFLQLLVLIKDYEAAEEEEALLQAILEGNFT
partner: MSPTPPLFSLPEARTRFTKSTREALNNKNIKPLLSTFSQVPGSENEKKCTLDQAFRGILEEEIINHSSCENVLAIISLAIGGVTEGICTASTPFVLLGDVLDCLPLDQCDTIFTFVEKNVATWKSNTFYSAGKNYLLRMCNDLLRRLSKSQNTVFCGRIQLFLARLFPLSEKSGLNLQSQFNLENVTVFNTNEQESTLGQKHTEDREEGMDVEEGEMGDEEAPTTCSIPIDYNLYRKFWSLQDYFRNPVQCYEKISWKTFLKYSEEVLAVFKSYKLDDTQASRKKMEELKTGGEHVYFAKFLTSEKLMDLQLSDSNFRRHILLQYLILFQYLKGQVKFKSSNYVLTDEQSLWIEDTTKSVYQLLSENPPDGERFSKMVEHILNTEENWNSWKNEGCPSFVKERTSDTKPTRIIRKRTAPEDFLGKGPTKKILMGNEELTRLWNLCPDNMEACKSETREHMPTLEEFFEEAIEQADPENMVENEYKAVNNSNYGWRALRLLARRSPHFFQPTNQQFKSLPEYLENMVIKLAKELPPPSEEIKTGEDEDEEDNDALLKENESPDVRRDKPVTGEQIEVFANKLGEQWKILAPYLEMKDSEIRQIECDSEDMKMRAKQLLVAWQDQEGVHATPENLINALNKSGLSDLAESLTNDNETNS
B5: Leucine-rich repeat and calponin homology domain-containing protein 1 (Homo sapiens), Q9Y2L9 (parent)
chain: MATPGSEPQPFVPALSVATLHPLHHPHHHHHHHQHHGGTGAPGGAGGGGGGSGGFNLPLNRGLERALEEAANSGGLNLSARKLKEFPRTAAPGHDLSDTVQADLSKNRLVEVPMELCHFVSLEILNLYHNCIRVIPEAIVNLQMLTYLNLSRNQLSALPACLCGLPLKVLIASNNKLGSLPEEIGQLKQLMELDVSCNEITALPQQIGQLKSLRELNVRRNYLKVLPQELVDLSLVKFDFSCNKVLVIPICFREMKQLQVLLLENNPLQSPPAQICTKGKVHIFKYLSIQACQIKTADSLYLHTMERPHLHQHVEDGKKDSDSGVGSDNGDKRLSATEPSDEDTVSLNVPMSNIMEEEQIIKEDSCHRLSPVKGEFHQEFQPEPSLLGDSTNSGEERDQFTDRADGLHSEFMNYKARAEDCEELLRIEEDVHWQTEGIISSSKDQDMDIAMIEQLREAVDLLQDPNGLSTDITERSVLNLYPMGSAEALELQDSALNGQIQLETSPVCEVQSDLTLQSNGSQYSPNEIRENSPAVSPTTNSTAPFGLKPRSVFLRPQRNLESIDPQFTIRRKMEQMREEKELVEQLRESIEMRLKVSLHEDLGAALMDGVVLCHLVNHIRPRSVASIHVPSPAVPKLSMAKCRRNVENFLEACRKLGVPEADLCSPCDILQLDFRHIRKTVDTLLALGEKAPPPTSALRSRDLIGFCLVHILFIVLVYITYHWNALSA

The variants in one experiment derive from B1. Particulars: with ZRSR2, Q15696.
Regarding V182M, the “effect of a mutation on the interaction” value is recorded as “with no effect”.

The variants in another experiment derive from B2. Particulars: with ribc2_human RIBC2, Q9H4K1.
On to L30V, for which the “effect of a mutation on the interaction” value is listed as “with no effect”.

In a further experiment the parent is B3. Particulars: with can3_human CAPN3, P20807.
On to S236L, for which the “effect of a mutation on the interaction” value is given as “with no effect”.

In the case of D320N, the “effect of a mutation on the interaction” value is “with no effect”.

A further experiment covers variants of B4. Particulars: with thoc1_human THOC1, Q96FV9.
Turning to R57K, the “effect of a mutation on the interaction” value was “with no effect”.

In the next experiment the parent is B5. Particulars: with dock8_human DOCK8, Q8NF50.
dock8_human DOCK8, Q8NF50, sequence (Q8NF50 whole entry): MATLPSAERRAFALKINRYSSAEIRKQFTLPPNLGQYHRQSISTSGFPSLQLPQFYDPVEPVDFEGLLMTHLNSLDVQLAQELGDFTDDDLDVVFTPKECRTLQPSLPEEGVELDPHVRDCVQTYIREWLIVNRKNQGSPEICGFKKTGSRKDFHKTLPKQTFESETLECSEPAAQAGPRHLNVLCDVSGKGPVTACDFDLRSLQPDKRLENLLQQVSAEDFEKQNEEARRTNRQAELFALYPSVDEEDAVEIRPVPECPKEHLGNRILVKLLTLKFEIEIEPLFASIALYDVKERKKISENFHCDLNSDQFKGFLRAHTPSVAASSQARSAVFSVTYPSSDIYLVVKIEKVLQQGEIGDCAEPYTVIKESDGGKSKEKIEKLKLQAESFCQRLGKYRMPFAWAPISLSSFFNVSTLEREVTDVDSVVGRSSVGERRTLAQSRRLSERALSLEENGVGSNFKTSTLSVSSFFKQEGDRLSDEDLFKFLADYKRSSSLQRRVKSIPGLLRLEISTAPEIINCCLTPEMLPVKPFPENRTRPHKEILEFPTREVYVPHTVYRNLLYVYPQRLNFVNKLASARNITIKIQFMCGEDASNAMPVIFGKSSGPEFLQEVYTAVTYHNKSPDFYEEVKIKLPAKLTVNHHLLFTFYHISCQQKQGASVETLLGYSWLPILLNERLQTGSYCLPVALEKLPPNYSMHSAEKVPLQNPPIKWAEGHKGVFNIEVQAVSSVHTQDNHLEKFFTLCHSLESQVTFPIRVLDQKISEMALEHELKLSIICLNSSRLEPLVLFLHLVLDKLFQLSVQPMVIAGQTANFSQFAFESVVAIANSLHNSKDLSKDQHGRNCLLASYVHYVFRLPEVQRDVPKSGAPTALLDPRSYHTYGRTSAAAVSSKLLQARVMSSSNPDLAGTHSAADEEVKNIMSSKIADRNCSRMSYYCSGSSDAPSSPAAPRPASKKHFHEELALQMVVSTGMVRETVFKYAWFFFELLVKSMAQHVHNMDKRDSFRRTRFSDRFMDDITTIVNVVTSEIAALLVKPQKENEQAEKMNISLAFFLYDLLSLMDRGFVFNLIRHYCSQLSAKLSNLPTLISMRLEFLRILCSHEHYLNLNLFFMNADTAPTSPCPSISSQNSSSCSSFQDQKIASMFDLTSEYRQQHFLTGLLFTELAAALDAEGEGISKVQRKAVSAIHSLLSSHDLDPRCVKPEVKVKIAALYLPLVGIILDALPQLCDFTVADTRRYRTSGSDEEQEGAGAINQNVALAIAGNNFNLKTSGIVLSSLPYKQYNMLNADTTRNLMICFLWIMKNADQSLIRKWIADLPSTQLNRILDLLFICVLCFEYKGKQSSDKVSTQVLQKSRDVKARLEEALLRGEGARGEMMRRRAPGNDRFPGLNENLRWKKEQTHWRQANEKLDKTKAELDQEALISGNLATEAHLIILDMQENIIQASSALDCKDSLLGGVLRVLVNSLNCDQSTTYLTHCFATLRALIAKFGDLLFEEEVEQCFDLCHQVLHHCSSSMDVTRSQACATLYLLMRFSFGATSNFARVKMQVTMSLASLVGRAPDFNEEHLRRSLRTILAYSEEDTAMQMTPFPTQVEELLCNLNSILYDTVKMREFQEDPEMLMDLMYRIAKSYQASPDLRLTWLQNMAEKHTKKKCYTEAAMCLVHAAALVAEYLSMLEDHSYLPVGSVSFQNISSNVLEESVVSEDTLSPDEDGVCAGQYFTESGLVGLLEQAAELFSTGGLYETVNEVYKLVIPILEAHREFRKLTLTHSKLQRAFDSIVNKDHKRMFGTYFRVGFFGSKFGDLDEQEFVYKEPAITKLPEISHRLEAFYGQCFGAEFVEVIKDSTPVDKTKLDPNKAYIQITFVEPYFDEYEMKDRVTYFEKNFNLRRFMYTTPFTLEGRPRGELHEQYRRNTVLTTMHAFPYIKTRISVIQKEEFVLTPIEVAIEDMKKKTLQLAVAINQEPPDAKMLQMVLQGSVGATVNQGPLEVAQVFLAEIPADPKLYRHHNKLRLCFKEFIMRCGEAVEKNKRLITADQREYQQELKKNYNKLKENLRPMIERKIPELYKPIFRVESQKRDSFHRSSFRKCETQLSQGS
On to A486S, for which the “effect of a mutation on the interaction” value is listed as “with no effect”.

The values are drawn from IntAct's records for PubMed 31515488.
